# In the DeepSol protein solubility set:
# Test: soluble on expression in E. coli; label from the status in PepcDB or PDB records
row,Sequence,soluble on expression in E. coli
1,MTLSAIQPNDMALYHYDSCPFCAKTRHAINELDLNIELRNIQKNHQHRIELQQGGNKTQVPCLRIGQSNGKAQWLYESGDIINFLRNRK,not soluble
2,GMKDTDETAFLNSLFMDFTSENELELFLKSLDEVWSEDLYSRLSAAGLIRHVISKVWNKEQHRISMVFEYDSKEGYQKCQEIIDKEFGITLKEKLKKFVFKIHNNRGVVVSEFIRST,soluble
3,MSLSKIKWWEMSRSFVLDEPETAILQIKPFPLPGLAQVPARIVLSQYRGLFYLNAYQDLDYQQRIYKSAPLPLLSPEDLRNCVSPDNPIQVSDNWPPSNTLDTGITLTPLGFDCSVPPQWQLSLRYLLIDQRDPQHPLLAISHRQDMTQMDFTPLQPISVETGQQWLQALQKFPPWFRAFDSGSGPITLNAYTPPATADSVWKQFRALHEQLRTAKDKGPGIRQVEDFFALHDYRSIAIDHSEYPGLLNDIAYWTSEAGQLNTARNWLLEVLRRDLGRMPTYLNLADLDWALFEQRPLDNIHQGRAIEGYRLYCGMRLQRQMSVPPRVLKRLGLESANPQACQGFWPLVAAADAGDEAEVRRLLASGVSGEVMAEDGRSALLHALDAPHLEIARLLLAHGAHTSGQYQWSTLAMLAMQRDLKDSPDLNQGGRLKFLLQAGVAIDEPNSRGQTPLMKLAEQERNLQGFTWLLQHPQNLDLRTVDDGETALYRAFWSNNYPAMKLLIEAGADLNLSYGRGTCGNEPMGQSLLMLVADKISPDQHSPIVSMQDTLDMFTLLLEKGADPNVGQRCEKKGRPLLLEIIARKKRDDMLKVLQGFAPPAPATAFREGHHHHHH,not soluble
4,MAHHHHHHMSTSRPAAVLHAASDDEKEDDPMAVLWQHERHVLVLTRAGKPIFSQHGHEEQLSPLCALLQVLLCIHEDKGGGDEQSRGPSQPAPRSDGTASSAAVKDELHQVVYYRSKSASGQACHQGDVNAQVQALTLFFYVQGDLIYLMSVRSVAPSLPAGAVEMSNAEGECEPPPLASYCLAQLRHVHHCILLVLPTVNTLLTRSPGLDVMAMYTSADRAALRELIESYQTELTYAVGAVATLALSVEKRRVVERALLCCYRSCADAAVGPPAHQLFSFLYFKNYLVAAVGPPETYAADPKVSVSAPLALGPDTALCGCLHVDDALLLYRYARSLVSRQLGEAWVPVCLPRFNSTGYLWCYAVNFTRYARELRKQQGKTEWPKVWEEHTELDIMLLHVSASQDDFAALSRSTRRFAQILCAPAVEDNFYYRLEEELYYRTPAPLTELLPSSHTSVSTCSSRDLSGYTDGVPVVVWRGHSRQ,not soluble
5,MSLVKAISSNLGYPRLGEKREWKRALEKFWNGAISEEELLAETKALRLHALKKQQEKGIDLIPVGDFSFYDQVLDTSVTFGIIPKRFQHDGGKVSLNTYFDIARGKSDAVASEMTKWFNTNYHYIVPELADADPKVLDNRALYYYEEAKKELGIEGKPVLVGPVTYLKLGKGNDAENFEALLDKFIPAYVEILKELERAGAKWVQIDEPYLATSFDKSEIKLFEKVYQAFQTAVPNLKIELQTYFESLDYYEEVVNLPVAAIGIDFVHDHGDSLEALKAHGFPEDKYLAAGVIDGRNVWRSDLDAKLSLLTEIADYVTDGKLIVQPSNSLLHVPVTKLSEPDLDEVILGGLSFADQKLDEIAILTKALTDGAESVTAELEDARAAVTALNESSHRNNLEVQEAIANLGNVRVDRELPFAERIKLQHAWLNLPLFPTTTIGSFPQSPEVRKTRADWLKGNITDAEYNAFIEKETARWIKIQEELDIDVLVHGEFERTDMVEYFGQKLAGFQATKFGWVQSYGSRAVRPPLIYGDVAFTEEITVKESVYAQSLTKRPVKGMLTAPVTIINWSFVRDDVPESVVANQVGLALRKEVEALERNGIKVIQVDEPALREGLPLKQARWEKYLNDAVYSFKLTTASVQNDTQIHTHMCYSDFDDIIDTISALDADVISIETSRSHGEIISTFEEVTYDKEIGLGVYDIHSPRVPTVTEIQDNIRRALRAIDAKQFWINPDCGLKTRKEPETIAALQDMIKATKEVRAEYQVLEKEGHHHHHH,soluble
6,MGSDKIHHHHHHMMERLIIDDSRFNFVPKVKTAYKAPPGLDEKLIMEISRAKDEPEWMLKHRLESLKVFNEWHNPRFGVDISGLDLGKIVSYIKPDAKKSTSWEEVPEEVKEAFDKLGIPEAERKYLAGVGAQLDSEIVYQNMKKELEKMGVIFLDMESAVREYPDLVKKYFMKLVPITDHKFAALHGAIWSGGTFLYVPAGVKIPMPLQAYFLMSNPGMGQFEHTIIVAEEGSEVTFIEGCSAPRYNIINLHAGMVEIYVKKGAKVKYLTIQNWSKNTYNLNTKRSIVDEEGSMTWVSGSLGSQKTMLYPMTILKGKGARAESMSITYAGPGQHMDTGSKVVHLAPYTSSIVSAKSISLGGGWAFYRGLLKITKEAVKSKASVECAALMLDNRSKSDTVPIIEVETDRADVGHEARIGRIGEDQIFYLMSRGLSEQEAKAMIVKGFVEPVVKELPFEYAVELNKLLELEIEKSIG,not soluble
7,DKSPSSLTLALGKNIAGRPTVADLARMPHLLVAGTTGSGKSVAVNAMVLSLLFKASHNDLRMLMIDPKMLELSVYQGIPHLLAPVVTDMKEAANGLRWCVAEMERRYKLMSAVGVRNLAGFNKKVKDAEEAGQPLMDPLFKPNPDLSEVPRPLQKLPFIVIFIDEFADMMMIVGKKVEELIARLAQKARAAGIHLILATQRPSV,not soluble
8,MLQRSVFFLSDRTGITAETLGHSLLTQFDGIEWKKHYASFLDSAAKAQAVIEQINTIAEQEGQPALVFSTLLDPVMLASIRRADCVLFDFFETCLGTLEAVLQQPPARIPGRSHVLRQDASYFRRIAAIQYALNSDDGANAKILADADVIVVGVSRTGKTPVCVYLALQYGVLAANYPFTPEDMGAIQLPPLLQPLRKKLFGLTLNTSRLQSIREERYPGSHYASFAECQRELQWQNELYRQFDIPSINTTDVSIEEISASIVNRAHLERRQHGTLEHHHHHH,not soluble
9,MPVEITVKELLEAGVHFGHERKRWNPKFARYIYAERNGIHIIDLQKTMEELERTFRFIEDLAMRGGTILFVGTKKQAQDIVRMEAERAGMPYVNQRWLGGMLTNFKTISQRVHRLEELEALFASPEIEERPKKEQVRLKHELERLQKYLSGFRLLKRLPDAIFVVDPTKEAIAVREARKLFIPVIALADTDSDPDLVDYIIPGNDDAIRSIQLILSRAVDLIIQARGGVVEPSPSYALVQEAEATETPEGESEVEA,soluble
10,MGSDKIHHHHHHMAGMQIQGMQIESIDIQNYRLFKQASLNKLSRLAVFVGENGAGKSTIFDVFSFLKDSLAQNAAKAVARRGGFKELVSRGTEGPISITLKFRETGGRLATYELSVAFEGGRVVVDREVLKFRRGQRGQPWHFVDFSRGRGTAVTNEAMYGKPGVKVERKEYILDEPTVLAIKGLGQFKEFRVVSEFRNLIENWHITDFHIADARPSAEEGYAEHLSTRGDNVAQVAQFLYDHHPDRFNNILDAMKRRIPGVEKVEAKPTEDGRLVLRFQDGAFKDPFIARYVSDGTIKMFAYLVLLHDPNPFPLLAVEEPENQLYPELLQELAEEFRDYARRGGQVFISTHSPEFMNGLYLDEIYWLSKKDGYSTIYRGADSEVLKRLVAEGDHPGALWRQGVFKGAW,not soluble
11,MKVRILGSGTSTGVPQIGCTCPVCTSADPKDNRLRASAIVETEDARILIDCGPDFRAQVLHLPFEKIDGVLITHEHYDHVGGLDDLRPFCRFGAVPIYAEEYVARALRLRMPYCFVDHRYPGVPDIPLQEIEVGHAFSIHHTEVVPLRVMHGRLPILGYRIGRLGYITDMLTMPEESYEQLEGIDVLIMNALRIAPHPTHQNLEEALKVAERIRAKETYFIHMSHDMGLHKKVEKELPENIHLTYDGMEIIF,not soluble
12,MNPLLQDYARILLEWNQTHNLSGAKNLSELEPQITDALKPLEFIKDFKSCLDIGSGAGLPAIPLALEKPEVKFILLEPRIKRAAFLNYLKSVLPLKNIEIIKKRLEDYQNLLQVDLITSRAVASSSFLIEKSQRFLKDKGYFLFYKGEQLKDEIACKDTECFMHQKRVYFYKSKESLCLEHHHHHH,soluble
13,QVQLQQSGPEDVKPGASVKISCKASGYTFTDYYMNWVKQSPGKGLEWIGDINPNNGGTSYNQKFKGRATLTVDKSSSTAYMELRSLTSEDSSVYYCESQSGAYWGQGTTVTVSA,soluble
